Test results as given in patent US20240270874A1 (JIANGSU HENGRUI PHARMACEUTICALS, published 2024).

T1: human KLB on CHOK1-hKLB cells (human, UniProt Q86Z14 1-1044)
T1 construct: whole, on cells; also called human KLB antigen; β-Klotho
T1 sequence (looked up): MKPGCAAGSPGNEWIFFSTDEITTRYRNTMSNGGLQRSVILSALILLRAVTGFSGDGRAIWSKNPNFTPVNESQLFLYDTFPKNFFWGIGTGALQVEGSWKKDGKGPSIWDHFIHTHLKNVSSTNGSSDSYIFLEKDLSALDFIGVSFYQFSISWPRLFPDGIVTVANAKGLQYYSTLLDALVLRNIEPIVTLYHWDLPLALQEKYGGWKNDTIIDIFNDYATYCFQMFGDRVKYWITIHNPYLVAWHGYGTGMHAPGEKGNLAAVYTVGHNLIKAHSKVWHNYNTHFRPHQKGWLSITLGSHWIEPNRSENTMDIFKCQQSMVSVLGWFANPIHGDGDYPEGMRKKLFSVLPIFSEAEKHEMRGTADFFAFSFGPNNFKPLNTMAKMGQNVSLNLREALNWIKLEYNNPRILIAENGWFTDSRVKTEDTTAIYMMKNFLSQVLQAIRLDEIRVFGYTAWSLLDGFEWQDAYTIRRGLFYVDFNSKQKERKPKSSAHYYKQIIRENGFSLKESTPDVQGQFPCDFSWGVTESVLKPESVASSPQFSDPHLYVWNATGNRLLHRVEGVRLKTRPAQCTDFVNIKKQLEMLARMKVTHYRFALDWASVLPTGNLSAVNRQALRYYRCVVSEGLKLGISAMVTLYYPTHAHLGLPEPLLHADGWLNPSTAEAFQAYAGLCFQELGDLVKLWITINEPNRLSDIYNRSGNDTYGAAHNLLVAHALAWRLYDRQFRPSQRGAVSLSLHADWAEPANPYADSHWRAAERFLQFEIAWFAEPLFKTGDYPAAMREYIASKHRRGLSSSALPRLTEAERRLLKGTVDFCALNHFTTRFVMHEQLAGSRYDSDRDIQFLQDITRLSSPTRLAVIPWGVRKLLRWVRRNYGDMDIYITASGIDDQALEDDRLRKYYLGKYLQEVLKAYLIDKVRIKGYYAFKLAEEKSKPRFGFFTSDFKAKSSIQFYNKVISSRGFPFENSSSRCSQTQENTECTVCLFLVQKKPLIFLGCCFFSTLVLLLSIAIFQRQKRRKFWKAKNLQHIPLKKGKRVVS

T2: hKLB (R&D, Cat. # 5889-KB) (human, UniProt Q86Z14 53-997, limits assumed)
T2 construct: bought soluble protein; also called KLB protein; human KLB
T2 sequence (looked up): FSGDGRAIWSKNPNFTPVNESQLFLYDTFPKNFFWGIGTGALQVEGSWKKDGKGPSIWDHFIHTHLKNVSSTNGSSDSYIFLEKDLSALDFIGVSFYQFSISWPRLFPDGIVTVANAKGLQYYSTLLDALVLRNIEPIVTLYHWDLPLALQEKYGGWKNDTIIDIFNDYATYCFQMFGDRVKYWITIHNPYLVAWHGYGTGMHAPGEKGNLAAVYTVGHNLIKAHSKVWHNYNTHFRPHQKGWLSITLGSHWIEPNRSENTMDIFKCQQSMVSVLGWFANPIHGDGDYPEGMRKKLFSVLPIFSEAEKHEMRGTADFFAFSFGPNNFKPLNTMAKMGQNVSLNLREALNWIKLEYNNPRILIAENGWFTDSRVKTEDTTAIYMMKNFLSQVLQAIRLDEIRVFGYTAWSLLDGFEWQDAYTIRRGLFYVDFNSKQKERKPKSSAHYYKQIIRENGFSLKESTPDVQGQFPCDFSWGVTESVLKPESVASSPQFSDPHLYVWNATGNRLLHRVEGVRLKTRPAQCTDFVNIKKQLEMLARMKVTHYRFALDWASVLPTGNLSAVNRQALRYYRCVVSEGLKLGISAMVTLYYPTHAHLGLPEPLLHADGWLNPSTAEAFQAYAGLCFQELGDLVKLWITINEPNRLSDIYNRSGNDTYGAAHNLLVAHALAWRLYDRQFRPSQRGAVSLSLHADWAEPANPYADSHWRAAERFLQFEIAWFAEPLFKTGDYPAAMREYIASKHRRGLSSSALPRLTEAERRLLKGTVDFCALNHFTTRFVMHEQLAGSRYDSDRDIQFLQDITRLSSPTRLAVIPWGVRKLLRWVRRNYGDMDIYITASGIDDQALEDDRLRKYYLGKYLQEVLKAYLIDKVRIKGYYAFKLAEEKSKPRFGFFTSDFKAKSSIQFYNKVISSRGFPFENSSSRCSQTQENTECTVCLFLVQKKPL

B1: hAb18-8 (antibody, human IgG1, kappa, L234A L235A, V domains shown)
VH: EVQLVQSGAEVKKPGASVKVSCKASGYTFTDYAMHWVRQAPGQRLEWMGVISTYSGTTNYNQNFKGRVTITVDKSASTAYMELSSLRSEDTAVYYCARSGPLDYWGQGTTVTVSS
VL: ENVLTQSPDFQSVTPKEKVTITCRATSSVSSSYLHWYQQKPDQSPKLWIYSTSQLASGVPSRFSGSGSGTDYTLTINSLEAEDAATYYCQQYSGYPLTFGQGTKLEIKR
notes: human IgG1 (L234A, L235A) / kappa
B2: hAb-23 (antibody, human IgG1, kappa, L234A L235A, V domains shown)
VH: QVQLVQSGAEVKKPGSSVKVSCKASGGTFSSYAISWVRQAPGQGLEWMGGIIPIFGTANYAQKFQGRVTITADESTSTAYMELSSLRSEDTAVYYCARELVSYYYGMDVWGQGTMVTVSS
VL: not shown
notes: from a human natural phage library; human IgG1 (L234A, L235A) / kappa; also called fully human antibody hAb-23
B3: hAb99-13 (antibody, human IgG1, kappa, L234A L235A, V domains shown)
VH: EVQLVQSGAEVKKPGASVKVSCKASGYTFTNYGINWVRQAPGQRLEWMGYIYIGNVDIEYNAKFKGRVTITSDTSASTAYMELSSLRSEDTAVYYCARGRGLGHFDVWGQGTTVTVSS
VL: DIQMTQSPSSLSASVGDRVTITCRASKSISKFLAWFQQKPGKTNKLLIYSGSTLQSGVPSRFSGSGSGTDFTLTISSLQPEDFATYYCQQHNEYPWTFGGGTKVEIKR
notes: as for B1

Experiments:
human FGFR1c on cells = human FGFR1c on cells (human, UniProt P11362 22-822); experiment: cell-based or functional assay
Sequence of human FGFR1c on cells (P11362 22-822): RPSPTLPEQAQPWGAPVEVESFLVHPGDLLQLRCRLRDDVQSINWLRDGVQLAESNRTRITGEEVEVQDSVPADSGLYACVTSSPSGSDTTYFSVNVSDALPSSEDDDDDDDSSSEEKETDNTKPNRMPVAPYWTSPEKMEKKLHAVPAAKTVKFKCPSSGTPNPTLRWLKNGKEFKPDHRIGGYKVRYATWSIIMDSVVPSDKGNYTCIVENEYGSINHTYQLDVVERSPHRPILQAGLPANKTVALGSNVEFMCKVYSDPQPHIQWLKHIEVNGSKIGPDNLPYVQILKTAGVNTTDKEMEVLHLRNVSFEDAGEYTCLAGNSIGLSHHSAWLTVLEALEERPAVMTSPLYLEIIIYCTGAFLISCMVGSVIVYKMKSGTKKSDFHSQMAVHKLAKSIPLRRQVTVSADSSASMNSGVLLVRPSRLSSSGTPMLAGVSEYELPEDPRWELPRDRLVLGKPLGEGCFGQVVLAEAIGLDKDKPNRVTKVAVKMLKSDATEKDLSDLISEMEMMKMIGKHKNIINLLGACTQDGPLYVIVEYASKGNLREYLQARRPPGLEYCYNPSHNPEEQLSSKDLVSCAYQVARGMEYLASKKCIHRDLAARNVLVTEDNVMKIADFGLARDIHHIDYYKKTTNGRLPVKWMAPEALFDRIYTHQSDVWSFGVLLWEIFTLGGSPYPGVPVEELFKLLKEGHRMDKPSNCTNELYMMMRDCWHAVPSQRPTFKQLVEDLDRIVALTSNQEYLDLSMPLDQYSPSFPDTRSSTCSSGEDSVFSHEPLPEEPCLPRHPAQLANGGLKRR

[1] = target: T1, human KLB on CHOK1-hKLB cells; experiment: flow cytometry on CHOK1-hKLB cells
Description: The binding ability of the antibodies for CHOK1 cell strains CHOK1-hKLB and CHOK1-cynoKLB overexpressing human KLB and monkey KLB (see Example 1 for specific preparation procedure), respectively, was detected by flow cytometry. The specific procedure was as follows: the above cells were cultured in 10% FBS-containing IMDM medium and incubated in an incubator at 37° C. and 5% CO₂ for 2 days. The cells were then added to a cell plate at 1×10⁵ cells per well, centrifuged at 300 g for 5 min, and then washed once with 1% BSA. The antibody diluted in gradient was added to the cell plate at 100 μL per well, and the mixture was incubated at 4° C. for 1 h and washed once with 1% BSA. The diluted (1:400) APC-goat anti-human IgG Fc fluorescent secondary antibody was added at 100 μL per well, and the resulting mixture was incubated at 4° C. for 1 h. The plate was washed three times with 1% BSA, PBS was added at 100 μL per well, and the plate was read.

[2] = target: T2, hKLB (R&D, Cat. # 5889-KB); experiment: SPR (Biacore T200), antibody captured on Protein A chip, hKLB as analyte, 1:1 model
Excerpt: A Protein A biosensor chip (Cat. # 29127556, GE) was allowed to affinity capture an antibody, and then a certain concentration of hKLB (R&D, Cat. # 5889-KB) was allowed to flow through the surface of the chip. The reaction signals were detected in real time using a Biacore T200 instrument to obtain an association and dissociation curve. After dissociation was complete in each experiment cycle, the biosensor chip was washed with Glycine1.5 (Cat. # BR-1003-54, GE) for regeneration. The data were fitted using a 1:1 model to obtain antibody affinity data, and the specific experimental results are shown in Table 10 below.

| Binder | Activation fold, SRE-Luc2P reporter in HEK293-hFGFR1c cells (human FGFR1c on cells) | EC50 [1] | Kd [2] | koff [2] | kon [2] |
| --- | --- | --- | --- | --- | --- |
| B1 | 0.81 fold | 1.93 nM | 0.977 nM | 0.000103 s⁻¹ | 106000 M⁻¹ s⁻¹ |
| B2 | 0.86 fold | 0.39 nM | 0.199 nM | 4.91e-05 s⁻¹ | 247000 M⁻¹ s⁻¹ |
| B3 | 0.77 fold | 0.44 nM | 2.1 nM | 0.000626 s⁻¹ | 298000 M⁻¹ s⁻¹ |
